# Experimental data from article PMC10786891, “Massively parallel profiling of RNA-targeting CRISPR-Cas13d”.
# Changes are numbered by the printed parent chain. Names may count otherwise.
# B1: target 1 MT 5'PFS ACU 3'PFS CCG (mixed)
# RNA 1: CACCCGUGCAAAAAUGCAGGGGUCUAAAACUGAGCGGAUAACCUCUCUAUGG
# RNA 2: GGGAAUGGAUCCACAUCUACGAAUUCACUCCAUAGAGAGGUUAUCCGCUCACCGAGAUCGGAAGAGCACACGU
# B2: target 1 MT 5'PFS AGA 3'PFS AGU (mixed)
# RNA 1: B1 RNA 1
# RNA 2: B1 RNA 2 with C28G, U29A, C52A, C53G, G54U
# B3: target 1 MT 5'PFS GGG 3'PFS AGG (mixed)
# RNA 1: B1 RNA 1
# RNA 2: B1 RNA 2 with A27G, C28G, U29G, C52A, C53G
# B4: target 1 G12A,A20C (mixed)
# RNA 1: B1 RNA 1
# RNA 2: B1 RNA 2 with A27G, C28U, U29A, A32C, G40A
# B5: target 1 MT 5'PFS GGG 3'PFS AGA (mixed)
# RNA 1: B1 RNA 1
# RNA 2: B1 RNA 2 with A27G, C28G, U29G, C52A, C53G, G54A
# B6: target 1 MT 5'PFS GGG 3'PFS AGC (mixed)
# RNA 1: B1 RNA 1
# RNA 2: B1 RNA 2 with A27G, C28G, U29G, C52A, C53G, G54C
# B7: target 1 MT 5'PFS AGA 3'PFS AGA (mixed)
# RNA 1: B1 RNA 1
# RNA 2: B1 RNA 2 with C28G, U29A, C52A, C53G, G54A
# B8: target 1 MT 5'PFS AGA 3'PFS AGC (mixed)
# RNA 1: B1 RNA 1
# RNA 2: B1 RNA 2 with C28G, U29A, C52A, C53G, G54C
# B9: target 1 MT 5'PFS GGG 3'PFS AGU (mixed)
# RNA 1: B1 RNA 1
# RNA 2: B1 RNA 2 with A27G, C28G, U29G, C52A, C53G, G54U
# B10: target 1 MT 5'PFS GAC 3'PFS AAU (mixed)
# RNA 1: B1 RNA 1
# RNA 2: B1 RNA 2 with A27G, C28A, U29C, C52A, C53A, G54U
# B11: target 1 MT 5'PFS GGG 3'PFS GGU (mixed)
# RNA 1: B1 RNA 1
# RNA 2: B1 RNA 2 with A27G, C28G, U29G, C52G, C53G, G54U
# B12: target 1 MT 5'PFS UCG 3'PFS UAC (mixed)
# RNA 1: B1 RNA 1
# RNA 2: B1 RNA 2 with A27U, U29G, C52U, C53A, G54C
# B13: target 1 MT 5'PFS UCG 3'PFS UAA (mixed)
# RNA 1: B1 RNA 1
# RNA 2: B1 RNA 2 with A27U, U29G, C52U, C53A, G54A
# B14: target 1 MT 5'PFS GGG 3'PFS GGG (mixed)
# RNA 1: B1 RNA 1
# RNA 2: B1 RNA 2 with A27G, C28G, U29G, C52G, C53G
# B15: target 1 insC 3' of 13,insG 3' of 3 (mixed)
# RNA 1: B1 RNA 1
# RNA 2: GGGAAUGGAUCCACAUCUACGAAUUCGUACCAUAGAGAGCGUUAUCCGCUGCACCGAGAUCGGAAGAGCACACGU
# B16: target 1 MT 5'PFS UCG 3'PFS UAU (mixed)
# RNA 1: B1 RNA 1
# RNA 2: B1 RNA 2 with A27U, U29G, C52U, C53A, G54U
# B17: target 1 MT 5'PFS GAC 3'PFS AAG (mixed)
# RNA 1: B1 RNA 1
# RNA 2: B1 RNA 2 with A27G, C28A, U29C, C52A, C53A
# B18: target 1 MT 5'PFS GGG 3'PFS GGC (mixed)
# RNA 1: B1 RNA 1
# RNA 2: B1 RNA 2 with A27G, C28G, U29G, C52G, C53G, G54C
# B19: target 1 MT 5'PFS GUA 3'PFS AAG (mixed)
# RNA 1: B1 RNA 1
# RNA 2: B1 RNA 2 with A27G, C28U, U29A, C52A, C53A
# B20: target 1 MT 5'PFS ACU 3'PFS UUU (mixed)
# RNA 1: B1 RNA 1
# RNA 2: B1 RNA 2 with C52U, C53U, G54U
# B21: target 1 MT 5'PFS GUA 3'PFS AAC (mixed)
# RNA 1: B1 RNA 1
# RNA 2: B1 RNA 2 with A27G, C28U, U29A, C52A, C53A, G54C
# B22: target 1 MT 5'PFS GCC 3'PFS CCU (mixed)
# RNA 1: B1 RNA 1
# RNA 2: B1 RNA 2 with A27G, U29C, G54U
# B23: target 1 MT 5'PFS GUA 3'PFS AAA (mixed)
# RNA 1: B1 RNA 1
# RNA 2: B1 RNA 2 with A27G, C28U, U29A, C52A, C53A, G54A
# B24: target 1 MT 5'PFS CAC 3'PFS CCG (mixed)
# RNA 1: B1 RNA 1
# RNA 2: B1 RNA 2 with A27C, C28A, U29C
# B25: target 1 MT 5'PFS ACU 3'PFS UUG (mixed)
# RNA 1: B1 RNA 1
# RNA 2: B1 RNA 2 with C52U, C53U
# B26: target 1 C6G,U8A (mixed)
# RNA 1: B1 RNA 1
# RNA 2: B1 RNA 2 with A27G, C28U, U29A, U44A, C46G
# B27: target 1 MT 5'PFS GUA 3'PFS AAU (mixed)
# RNA 1: B1 RNA 1
# RNA 2: B1 RNA 2 with A27G, C28U, U29A, C52A, C53A, G54U
# B28: target 1 MT 5'PFS UCC 3'PFS AGA (mixed)
# RNA 1: B1 RNA 1
# RNA 2: B1 RNA 2 with A27U, U29C, C52A, C53G, G54A
# B29: target 1 MT 5'PFS UGU 3'PFS CAA (mixed)
# RNA 1: B1 RNA 1
# RNA 2: B1 RNA 2 with A27U, C28G, C53A, G54A
# B30: target 1 MT 5'PFS ACU 3'PFS UUA (mixed)
# RNA 1: B1 RNA 1
# RNA 2: B1 RNA 2 with C52U, C53U, G54A
# B31: target 1 MT 5'PFS UAC 3'PFS CCG (mixed)
# RNA 1: B1 RNA 1
# RNA 2: B1 RNA 2 with A27U, C28A, U29C
# B32: target 1 MT 5'PFS AAA 3'PFS UCU (mixed)
# RNA 1: B1 RNA 1
# RNA 2: B1 RNA 2 with C28A, U29A, C52U, G54U
# B33: target 1 MT 5'PFS UAU 3'PFS UUU (mixed)
# RNA 1: B1 RNA 1
# RNA 2: B1 RNA 2 with A27U, C28A, C52U, C53U, G54U
# B34: target 1 MT 5'PFS GGC 3'PFS GCU (mixed)
# RNA 1: B1 RNA 1
# RNA 2: B1 RNA 2 with A27G, C28G, U29C, C52G, G54U
# B35: target 1 MT 5'PFS AAA 3'PFS UCG (mixed)
# RNA 1: B1 RNA 1
# RNA 2: B1 RNA 2 with C28A, U29A, C52U
# B36: target 1 MT 5'PFS UAU 3'PFS UUC (mixed)
# RNA 1: B1 RNA 1
# RNA 2: B1 RNA 2 with A27U, C28A, C52U, C53U, G54C
# B37: target 1 insA 3' of 13,insU 3' of 7 (mixed)
# RNA 1: B1 RNA 1
# RNA 2: B15 RNA 2 with C40A, C47U, G48C, C49G, U50C, G51U
# B38: target 1 MT 5'PFS UAU 3'PFS UUA (mixed)
# RNA 1: B1 RNA 1
# RNA 2: B1 RNA 2 with A27U, C28A, C52U, C53U, G54A
# B39: target 1 MT 5'PFS GCG 3'PFS CUC (mixed)
# RNA 1: B1 RNA 1
# RNA 2: B1 RNA 2 with A27G, U29G, C53U, G54C
# B40: target 1 MT 5'PFS GCG 3'PFS CUA (mixed)
# RNA 1: B1 RNA 1
# RNA 2: B1 RNA 2 with A27G, U29G, C53U, G54A
# Target: T1, EsCas13d, nuclease-dead (Eubacterium siraeum, UniProt B0MS50, R295A;H300A;R849A;H854A)
# T1 sequence: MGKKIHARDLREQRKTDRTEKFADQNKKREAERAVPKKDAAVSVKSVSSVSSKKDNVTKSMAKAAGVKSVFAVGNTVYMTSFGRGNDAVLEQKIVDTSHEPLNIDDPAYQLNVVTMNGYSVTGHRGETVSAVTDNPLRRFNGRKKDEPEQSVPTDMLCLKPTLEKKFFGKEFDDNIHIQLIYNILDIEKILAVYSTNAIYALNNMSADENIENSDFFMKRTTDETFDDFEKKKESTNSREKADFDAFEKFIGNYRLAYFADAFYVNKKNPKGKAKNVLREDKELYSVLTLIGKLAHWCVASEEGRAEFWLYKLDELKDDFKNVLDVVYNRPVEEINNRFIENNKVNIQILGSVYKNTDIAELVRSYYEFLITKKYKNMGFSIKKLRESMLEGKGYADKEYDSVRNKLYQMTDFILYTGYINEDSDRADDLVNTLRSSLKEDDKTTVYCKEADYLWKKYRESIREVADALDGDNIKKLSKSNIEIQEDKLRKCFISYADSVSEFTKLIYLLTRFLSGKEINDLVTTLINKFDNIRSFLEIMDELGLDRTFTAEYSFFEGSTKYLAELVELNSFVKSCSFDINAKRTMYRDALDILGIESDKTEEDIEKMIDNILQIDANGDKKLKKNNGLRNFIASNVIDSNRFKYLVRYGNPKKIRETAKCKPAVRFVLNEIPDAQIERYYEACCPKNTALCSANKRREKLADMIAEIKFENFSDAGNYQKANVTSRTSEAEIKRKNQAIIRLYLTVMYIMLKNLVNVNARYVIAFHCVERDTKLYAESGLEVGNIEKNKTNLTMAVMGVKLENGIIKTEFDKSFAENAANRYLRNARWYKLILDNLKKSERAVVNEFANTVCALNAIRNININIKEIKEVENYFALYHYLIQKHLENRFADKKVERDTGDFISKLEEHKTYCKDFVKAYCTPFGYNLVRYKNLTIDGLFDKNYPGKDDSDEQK
# Experiment: crRNA (strand 1, pre-loaded); Mg2+; 40 mM Tris-HCl pH 7.5, 150 mM NaCl, 6 mM MgCl2, 1 mM DTT, 0.1% Tween-20, 0.2 mg/ml BSA; 25 C; 10 min per concentration, then washed
# Details: tags: His6-TwinStrep-SUMO cleaved; N-terminal SNAP kept (SNAP-Surface 488); label: 3' end held by stalled T7 RNA polymerase
row,Binder,Kd [nM]
1,B1,~115
2,B2,44.5 ± 18
3,B3,50.5 ± 8.5
4,B4,42 ± 9
5,B5,23.9 ± 3.1
6,B6,20.5 ± 4.5
7,B7,70.5 ± 31.5
8,B8,~42.5
9,B9,30.4 ± 4.65
10,B10,~50
11,B11,61 ± 14
12,B12,22.5 ± 9
13,B13,86.5 ± 38.5
14,B14,65.5 ± 14
15,B15,5.58 ± 0.3
16,B16,27 ± 5.5
17,B17,50.5 ± 22.5
18,B18,26.5 ± 5
19,B19,19.1 ± 1.2
20,B20,39.5 ± 15.5

row,Binder,Kd [nM]
1,B21,20.4 ± 1.55
2,B22,8.9 ± 3
3,B23,26.4 ± 3.45
4,B24,9.7 ± 2.45
5,B25,46 ± 15
6,B26,13.8 ± 0.6
7,B27,17.8 ± 1.5
8,B28,~60
9,B29,~90
10,B30,52.5 ± 21
11,B31,14.5 ± 6
12,B32,25 ± 5.5
13,B33,31 ± 7.5
14,B34,7.25 ± 1.75
15,B35,15.2 ± 3.7
16,B36,22.5 ± 6
17,B37,11.2 ± 0.8
18,B38,18.1 ± 3.15
19,B39,~43
20,B40,15.7 ± 3.15
